B1: Hsp70 C-terminal peptide GPTIEEVD (residues 634-641), biotin-SGSG at the N terminus [modified: biotin at the N terminus; biotin at the N terminus] [not stated] / Carboxy-terminus of Hsc70-interacting protein (CHIP), His-tagged, wild type … (parent complex)
chain 1: SGSGGPTIEEVD
chain 2: MKGKEEKEGGARLGAGGGSPEKSPSAQELKEQGNRLFVGRKYPEAAACYGRAITRNPLVAVYYTNRALCYLKMQQHEQALADCRRALELDGQSVKAHFFLGQCQLEMESYDEAIANLQRAYSLAKEQRLNFGDDIPSALRIAKKKRWNSIEERRIHQESELHSYLSRLIAAERERELEECQRNHEGDEDDSHVRAQQACIEAKHDKYMADMDELFSQVDEKRKKRDIPDYLCGKISFELMREPCITPSGITYDRKDIEEHLQRVGHFDPVTRSPLTQEQLIPNLAMKEVIDAFISENGWVEDY
B2: Carboxy-terminus of Hsc70-interacting protein (CHIP), untagged, wild type [human] / His-tagged UbcH5a [not stated] (parent complex)
chain 1: B1 chain 2
chain 2: not shown
B3: Carboxy-terminus of Hsc70-interacting protein (CHIP), His-tagged, wild type [human] / GST-IRF-1 (pDEST-15-codon optimized IRF-1) [not stated] (parent complex)
chain 1: B1 chain 2
chain 2: MPITRMRMRPWLEMQINSNQIPGLIWINKEEMIFQIPWKHAAKHGWDINKDACLFRSWAIHTGRYKAGEKEPDPKTWKANFRCAMNSLPDIEEVKDQSRNKGSSAVRVYRMLPPLTKNQRKERKSKSSRDAKSKAKRKSCGDSSPDTFSDGLSSSTLPDDHSSYTVPGYMQDLEVEQALTPALSPCAVSSTLPDWHIPVEVVPDSTSDLYNFQVSPMPSTSEATTDEDEEGKLPEDIMKLLEQSEWQPTNVDGKGYLLNEPGVQPTSVYGDFSCKEEPEIDSPGGDIGLSLQRVFTDLKNMDATWLDSLLTPVRLPSIQAIPCAP
B4: GST-IRF-1 (pDEST-15-codon optimized IRF-1) [not stated] / Carboxy-terminus of Hsc70-interacting protein (CHIP), His-tagged, wild type [human] (parent complex)
chain 1: B3 chain 2
chain 2: B1 chain 2

Variants of: B1
Test: microtitre-well binding assay (streptavidin-HRP detection); value read at the highest dose, 20 uM Hsp70 wt peptide; His-CHIP coated on wells, biotin peptide in the mobile phase; parent: 45; read off a plot

response	Variant
~7 RLU	chain 2 K30A

Variants of: B2
Test: AlphaScreen; value read at the highest dose, 100 ng CHIP; untagged CHIP on protein A acceptor beads through anti-CHIP N-term pAb, His-UbcH5a on Nickel-chelate donor beads; parent: 2.3e+04; read off a plot

response	Variant
~9000 AlphaScreen Units	chain 1 K30A

Variants of: B3
Test: microtitre-well binding assay (luminometer, anti-CHIP antibody); upper panel; value read at the highest dose, about 130 ng CHIP; GST-IRF-1 immobilized, His-CHIP in the mobile phase; parent: 18; read off a plot

response	Variant
~12 RLU	chain 1 K30A

Variants of: B4
Test: microtitre-well binding assay; lower panel; value read at the highest dose, about 130 ng GST-IRF-1; His-CHIP coated on wells, GST-IRF-1 in the mobile phase; parent: 120; read off a plot

response	Variant
~110 RLU	chain 2 K30A
